Molecular target: the molecule itself
Experiment: crystal structure; PIV5 HN ectodomain 56-565 at ~10 mg/mL with a 1.2 molar excess of sialyllactose; 1.6 M ammonium sulfate, 0.1 M MES pH 6.5, 10% 1,4-dioxane, room temperature; space group I4, 2.5 Å

B1: PIV5 HN ectodomain (56-565) (domain or fragment)
chain: SGLGSITDLLNNILSVANQIIYNSAVALPLQLDTLESTLLTAIKSLQTSDKLEQNCSWSAALINDNRYINGINQFYFSIAEGRNLTLGPLLNMPSFIPTATTPEGCTRIPSFSLTKTHWCYTHNVILNGCQDHVSSNQFVSMGIIEPTSAGFPFFRTLKTLYLSDGVNRKSCSISTVPGGCMMYCFVSTQPERDDYFSAAPPEQRIIIMYYNDTIVERIINPPGVLDVWATLNPGTGSGVYYLGWVLFPIYGGVIKGTSLWNNQANKYFIPQMVAALCSQNQATQVQNAKSSYYSSWFGNRMIQSGILACPLRQDLTNECLVLPFSNDQVLMGAEGRLYMYGDSVYYYQRSNSWWPMTMLYKVTITFTNGQPSAISAQNVPTQQVPRPGTGDCSATNRCPGFCLTGVYADAWLLTNPSSTSTFGSEATFTGSYLNTATQRINPTMYIANNTQIISSQQFGSSGQEAAYGHTTCFRDTGSVMVYCIYIIELSSSLLGQFQIVPFIRQVTLS
notes: Hemagglutinin-neuraminidase (HN) of parainfluenza virus 5, ectodomain residues 56-565 (stalk 56-101, linker 102-117, head from I118); also called parainfluenza virus 5 hemagglutinin-neuraminidase ectodomain
stoichiometry N: 4
